This assay addresses biotin synthase (Escherichia coli) (UniProt P12996).

2 substances from patent US6083712 can be followed below.

In turn, “ferredoxin(flavodoxin)-NADP+ reductase (from UniProt P28861) (enzyme)” showed a pmol of biotin produced of 800 pmol.

In turn, flavodoxin (from UniProt P61949) had a pmol of biotin produced of 800 pmol.
